Results: patent publication US20140087995A1 (published 2014)
Numbered stars: 1 amine (or outer) side, 2 acyl side, 3 side chain; on linkers, the order of the positions; unused ones are H or OH. Bridge positions count the residues as written; N and C are the ends. Side chains are listed from the residue outwards. Ends that are not written are not given here. * marks the point of attachment. C20 diacid = O=C(O)CCCCCCCCCCCCCCCCCCC(=O)*; γGlu = O=C(O)[C@H](CCC(=O)[*:2])N[*:1]

T1: human calcitonin receptor (human, UniProt P30988 25-474)
T1 sequence (looked up): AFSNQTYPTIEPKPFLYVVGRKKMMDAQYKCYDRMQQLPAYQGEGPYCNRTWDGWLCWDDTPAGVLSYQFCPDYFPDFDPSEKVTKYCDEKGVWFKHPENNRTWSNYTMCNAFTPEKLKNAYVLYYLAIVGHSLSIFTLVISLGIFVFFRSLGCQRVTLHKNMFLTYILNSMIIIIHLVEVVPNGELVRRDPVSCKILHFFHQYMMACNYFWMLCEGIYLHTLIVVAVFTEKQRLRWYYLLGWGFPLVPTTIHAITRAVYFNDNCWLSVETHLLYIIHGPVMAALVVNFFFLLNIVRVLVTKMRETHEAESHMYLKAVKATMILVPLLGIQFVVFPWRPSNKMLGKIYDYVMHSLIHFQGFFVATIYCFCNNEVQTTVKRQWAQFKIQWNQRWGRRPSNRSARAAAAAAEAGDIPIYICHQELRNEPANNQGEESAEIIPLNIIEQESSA

T2: human amylin 3(a) receptor (human calcitonin receptor + RAMP-3) (human, UniProt P30988 25-474; O60896 24-148, limits assumed)
T2 sequence (looked up) 1: T1 sequence (looked up)
T2 sequence (looked up) 2: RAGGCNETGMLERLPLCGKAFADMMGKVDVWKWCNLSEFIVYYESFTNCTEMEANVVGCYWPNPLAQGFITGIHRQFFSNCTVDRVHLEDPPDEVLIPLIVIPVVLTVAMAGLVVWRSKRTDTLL

B1: N^α1-[(4S)-4-carboxy-4-(19-carboxynonadecanoylamino)butanoyl]-[Glu14,Arg17,Pro21,Pro27,Asp35,Pro37]-h-amylin (peptide)
peptide: {C20 diacid-γGlu}-KCNTATCATQRLAEFLRHSSPNFGAIPSSTNVGSDTP-NH2
modifications: disulfide 2-7
SMILES: CC[C@H](C)[C@H](NC(=O)[C@H](C)NC(=O)CNC(=O)[C@H](Cc1ccccc1)NC(=O)[C@H](CC(N)=O)NC(=O)[C@@H]1CCCN1C(=O)[C@H](CO)NC(=O)[C@H](CO)NC(=O)[C@H](Cc1c[nH]cn1)NC(=O)[C@H](CCCNC(=N)N)NC(=O)[C@H](CC(C)C)NC(=O)[C@H](Cc1ccccc1)NC(=O)[C@H](CCC(=O)O)NC(=O)[C@H](C)NC(=O)[C@H](CC(C)C)NC(=O)[C@H](CCCNC(=N)N)NC(=O)[C@H](CCC(N)=O)NC(=O)[C@@H](NC(=O)[C@H](C)NC(=O)[C@@H]1CSSC[C@H](NC(=O)[C@H](CCCCN)NC(=O)CC[C@H](NC(=O)CCCCCCCCCCCCCCCCCCC(=O)O)C(=O)O)C(=O)N[C@@H](CC(N)=O)C(=O)N[C@@H]([C@@H](C)O)C(=O)N[C@@H](C)C(=O)N[C@@H]([C@@H](C)O)C(=O)N1)[C@@H](C)O)C(=O)N1CCC[C@H]1C(=O)N[C@@H](CO)C(=O)N[C@@H](CO)C(=O)N[C@H](C(=O)N[C@@H](CC(N)=O)C(=O)N[C@H](C(=O)NCC(=O)N[C@@H](CO)C(=O)N[C@@H](CC(=O)O)C(=O)N[C@H](C(=O)N1CCC[C@H]1C(N)=O)[C@@H](C)O)C(C)C)[C@@H](C)O
notes: also called compound 11
B2: N^ε1-[(4S)-4-carboxy-4-(19-carboxynonadecanoylamino)butanoyl]-[Ala14,Arg17,Pro21,Pro27,Pro34]-h-amylin (peptide)
peptide: K([γGlu-C20 diacid])CNTATCATQRLAAFLRHSSPNFGAIPSSTNVGPNTY-NH2
modifications: disulfide 2-7; N-terminus assumed
SMILES: CC[C@H](C)[C@H](NC(=O)[C@H](C)NC(=O)CNC(=O)[C@H](Cc1ccccc1)NC(=O)[C@H](CC(N)=O)NC(=O)[C@@H]1CCCN1C(=O)[C@H](CO)NC(=O)[C@H](CO)NC(=O)[C@H](Cc1c[nH]cn1)NC(=O)[C@H](CCCNC(=N)N)NC(=O)[C@H](CC(C)C)NC(=O)[C@H](Cc1ccccc1)NC(=O)[C@H](C)NC(=O)[C@H](C)NC(=O)[C@H](CC(C)C)NC(=O)[C@H](CCCNC(=N)N)NC(=O)[C@H](CCC(N)=O)NC(=O)[C@@H](NC(=O)[C@H](C)NC(=O)[C@@H]1CSSC[C@H](NC(=O)[C@@H](N)CCCCNC(=O)CC[C@H](NC(=O)CCCCCCCCCCCCCCCCCCC(=O)O)C(=O)O)C(=O)N[C@@H](CC(N)=O)C(=O)N[C@@H]([C@@H](C)O)C(=O)N[C@@H](C)C(=O)N[C@@H]([C@@H](C)O)C(=O)N1)[C@@H](C)O)C(=O)N1CCC[C@H]1C(=O)N[C@@H](CO)C(=O)N[C@@H](CO)C(=O)N[C@H](C(=O)N[C@@H](CC(N)=O)C(=O)N[C@H](C(=O)NCC(=O)N1CCC[C@H]1C(=O)N[C@@H](CC(N)=O)C(=O)N[C@H](C(=O)N[C@@H](Cc1ccc(O)cc1)C(N)=O)[C@@H](C)O)C(C)C)[C@@H](C)O
notes: also called compound 94
B3: N^ε1-[(4S)-4-carboxy-4-(19-carboxynonadecanoylamino)butanoyl]-[Asp14,Arg17,Pro21,Pro27,Pro34,Glu35]-h-amylin (peptide)
peptide: K([γGlu-C20 diacid])CNTATCATQRLADFLRHSSPNFGAIPSSTNVGPETY-NH2
modifications: disulfide 2-7; N-terminus assumed
SMILES: CC[C@H](C)[C@H](NC(=O)[C@H](C)NC(=O)CNC(=O)[C@H](Cc1ccccc1)NC(=O)[C@H](CC(N)=O)NC(=O)[C@@H]1CCCN1C(=O)[C@H](CO)NC(=O)[C@H](CO)NC(=O)[C@H](Cc1c[nH]cn1)NC(=O)[C@H](CCCNC(=N)N)NC(=O)[C@H](CC(C)C)NC(=O)[C@H](Cc1ccccc1)NC(=O)[C@H](CC(=O)O)NC(=O)[C@H](C)NC(=O)[C@H](CC(C)C)NC(=O)[C@H](CCCNC(=N)N)NC(=O)[C@H](CCC(N)=O)NC(=O)[C@@H](NC(=O)[C@H](C)NC(=O)[C@@H]1CSSC[C@H](NC(=O)[C@@H](N)CCCCNC(=O)CC[C@H](NC(=O)CCCCCCCCCCCCCCCCCCC(=O)O)C(=O)O)C(=O)N[C@@H](CC(N)=O)C(=O)N[C@@H]([C@@H](C)O)C(=O)N[C@@H](C)C(=O)N[C@@H]([C@@H](C)O)C(=O)N1)[C@@H](C)O)C(=O)N1CCC[C@H]1C(=O)N[C@@H](CO)C(=O)N[C@@H](CO)C(=O)N[C@H](C(=O)N[C@@H](CC(N)=O)C(=O)N[C@H](C(=O)NCC(=O)N1CCC[C@H]1C(=O)N[C@@H](CCC(=O)O)C(=O)N[C@H](C(=O)N[C@@H](Cc1ccc(O)cc1)C(N)=O)[C@@H](C)O)C(C)C)[C@@H](C)O
B4: N^α1N^α1-[(4S)-4-carboxy-4-(19-carboxynonadecanoylamino)butanoyl]-[Glu14,Arg17,Pro21,Pro27,Glu35]-h-amylin (peptide)
peptide: {C20 diacid-γGlu}-KCNTATCATQRLAEFLRHSSPNFGAIPSSTNVGSETY-NH2
modifications: disulfide 2-7
SMILES: CC[C@H](C)[C@H](NC(=O)[C@H](C)NC(=O)CNC(=O)[C@H](Cc1ccccc1)NC(=O)[C@H](CC(N)=O)NC(=O)[C@@H]1CCCN1C(=O)[C@H](CO)NC(=O)[C@H](CO)NC(=O)[C@H](Cc1c[nH]cn1)NC(=O)[C@H](CCCNC(=N)N)NC(=O)[C@H](CC(C)C)NC(=O)[C@H](Cc1ccccc1)NC(=O)[C@H](CCC(=O)O)NC(=O)[C@H](C)NC(=O)[C@H](CC(C)C)NC(=O)[C@H](CCCNC(=N)N)NC(=O)[C@H](CCC(N)=O)NC(=O)[C@@H](NC(=O)[C@H](C)NC(=O)[C@@H]1CSSC[C@H](NC(=O)[C@H](CCCCN)NC(=O)CC[C@H](NC(=O)CCCCCCCCCCCCCCCCCCC(=O)O)C(=O)O)C(=O)N[C@@H](CC(N)=O)C(=O)N[C@@H]([C@@H](C)O)C(=O)N[C@@H](C)C(=O)N[C@@H]([C@@H](C)O)C(=O)N1)[C@@H](C)O)C(=O)N1CCC[C@H]1C(=O)N[C@@H](CO)C(=O)N[C@@H](CO)C(=O)N[C@H](C(=O)N[C@@H](CC(N)=O)C(=O)N[C@H](C(=O)NCC(=O)N[C@@H](CO)C(=O)N[C@@H](CCC(=O)O)C(=O)N[C@H](C(=O)N[C@@H](Cc1ccc(O)cc1)C(N)=O)[C@@H](C)O)C(C)C)[C@@H](C)O
notes: also called compound 22
B5: N^α1-[(4S)-4-carboxy-4-(19-carboxynonadecanoylamino)butanoyl]-[Glu14,Arg17,Pro21,Pro27,His35]-h-amylin (peptide)
peptide: {C20 diacid-γGlu}-KCNTATCATQRLAEFLRHSSPNFGAIPSSTNVGSHTY-NH2
modifications: disulfide 2-7
SMILES: CC[C@H](C)[C@H](NC(=O)[C@H](C)NC(=O)CNC(=O)[C@H](Cc1ccccc1)NC(=O)[C@H](CC(N)=O)NC(=O)[C@@H]1CCCN1C(=O)[C@H](CO)NC(=O)[C@H](CO)NC(=O)[C@H](Cc1c[nH]cn1)NC(=O)[C@H](CCCNC(=N)N)NC(=O)[C@H](CC(C)C)NC(=O)[C@H](Cc1ccccc1)NC(=O)[C@H](CCC(=O)O)NC(=O)[C@H](C)NC(=O)[C@H](CC(C)C)NC(=O)[C@H](CCCNC(=N)N)NC(=O)[C@H](CCC(N)=O)NC(=O)[C@@H](NC(=O)[C@H](C)NC(=O)[C@@H]1CSSC[C@H](NC(=O)[C@H](CCCCN)NC(=O)CC[C@H](NC(=O)CCCCCCCCCCCCCCCCCCC(=O)O)C(=O)O)C(=O)N[C@@H](CC(N)=O)C(=O)N[C@@H]([C@@H](C)O)C(=O)N[C@@H](C)C(=O)N[C@@H]([C@@H](C)O)C(=O)N1)[C@@H](C)O)C(=O)N1CCC[C@H]1C(=O)N[C@@H](CO)C(=O)N[C@@H](CO)C(=O)N[C@H](C(=O)N[C@@H](CC(N)=O)C(=O)N[C@H](C(=O)NCC(=O)N[C@@H](CO)C(=O)N[C@@H](Cc1c[nH]cn1)C(=O)N[C@H](C(=O)N[C@@H](Cc1ccc(O)cc1)C(N)=O)[C@@H](C)O)C(C)C)[C@@H](C)O
notes: also called compound 18
B6: N^α1-[(4S)-4-carboxy-4-(19-carboxynonadecanoylamino)butanoyl]-[Glu14,Arg17,Pro21,Pro27,Pro29]-h-amylin (peptide)
peptide: {C20 diacid-γGlu}-KCNTATCATQRLAEFLRHSSPNFGAIPSPTNVGSNTY-NH2
modifications: disulfide 2-7
SMILES: CC[C@H](C)[C@H](NC(=O)[C@H](C)NC(=O)CNC(=O)[C@H](Cc1ccccc1)NC(=O)[C@H](CC(N)=O)NC(=O)[C@@H]1CCCN1C(=O)[C@H](CO)NC(=O)[C@H](CO)NC(=O)[C@H](Cc1c[nH]cn1)NC(=O)[C@H](CCCNC(=N)N)NC(=O)[C@H](CC(C)C)NC(=O)[C@H](Cc1ccccc1)NC(=O)[C@H](CCC(=O)O)NC(=O)[C@H](C)NC(=O)[C@H](CC(C)C)NC(=O)[C@H](CCCNC(=N)N)NC(=O)[C@H](CCC(N)=O)NC(=O)[C@@H](NC(=O)[C@H](C)NC(=O)[C@@H]1CSSC[C@H](NC(=O)[C@H](CCCCN)NC(=O)CC[C@H](NC(=O)CCCCCCCCCCCCCCCCCCC(=O)O)C(=O)O)C(=O)N[C@@H](CC(N)=O)C(=O)N[C@@H]([C@@H](C)O)C(=O)N[C@@H](C)C(=O)N[C@@H]([C@@H](C)O)C(=O)N1)[C@@H](C)O)C(=O)N1CCC[C@H]1C(=O)N[C@@H](CO)C(=O)N1CCC[C@H]1C(=O)N[C@H](C(=O)N[C@@H](CC(N)=O)C(=O)N[C@H](C(=O)NCC(=O)N[C@@H](CO)C(=O)N[C@@H](CC(N)=O)C(=O)N[C@H](C(=O)N[C@@H](Cc1ccc(O)cc1)C(N)=O)[C@@H](C)O)C(C)C)[C@@H](C)O
notes: also called compound 37

target: T1, human calcitonin receptor; assay: cell-based or functional assay

Compared with B1, B2 is higher in “Ratio hCT/hAmylin funct.” value: 0.9 for the first, 4.5 for the second.

Compared with B3, B4 is lower in “Ratio hCT/hAmylin funct.” value: 3.9 for the first, 3.8 for the second.

First: B5
Second: B6
The “Ratio hCT/hAmylin funct.” value of the first is higher: 4.8 for the first, 4 for the second.

In the case of B3, the “hCTR funct. EC50 (pM)” value is reported as 1120 pM.

target: T2, human amylin 3(a) receptor (human …); assay: cell-based or functional assay

Compared with B1, B2 is lower in “hAmylin-R funct. EC50 (pM)” value: 120 pM for the first, 70 pM for the second.

Going from B3 to B4, the “hAmylin-R funct. EC50 (pM)” value falls from 288 pM to 270 pM.

Compared with B5, B6 is lower in “hAmylin-R funct. EC50 (pM)” value: 154 pM for the first, 92 pM for the second.
